{
  "source": "patent US20230265201A1",
  "about": "(published 2023)",
  "key": {"[1]": {"target": "T1, rhesus recombinant CD70 (FLAG-TNC-rhesus CD70) (rhesus macaque (Macaca mulatta), UniProt F7GPA5 174-316)", "T1 construct": "also called rhesus Flag-TNC-CD70; Rhesus monkey; not shown: Flag tag and TNC trimerisation domain", "T1 sequence": "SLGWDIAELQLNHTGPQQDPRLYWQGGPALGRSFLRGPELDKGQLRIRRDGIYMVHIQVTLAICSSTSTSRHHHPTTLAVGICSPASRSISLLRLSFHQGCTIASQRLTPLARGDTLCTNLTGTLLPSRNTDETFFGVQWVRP", "assay": "inhibition ELISA: CD27 binding to FLAG-TNC-rhesus CD70", "from_the_text": "In this assay, Flag-TNC-CD70 is captured by an anti-Flag mAb and binding of CD27-Fc is detected via a biotinylated anti-CD27 mAb and strep-HRP in the absence or presence of CD70 Fabs (FIGS. 2 and 3) or CD70 mAbs (FIG. 4). In FIG. 2B it can be seen that 27B3, which has an identical VH as 9D1, but contains a somewhat different light chain, seems to block binding of CD27 to CD70 more efficiently, which was in line with the better off rate of this Fab as measured on Biacore (data not shown). Table 3 indicates the blocking potency (expressed as IC50) for the various llama-human chimeric mAbs tested in the CD70 inhibition ELISA. […] FIG. 3 is a composite of an experiment testing llama CD70 Fabs for blocking activity (in the inhibition ELISA, see white bars) and for CD70 binding (binding ELISA, black bars). For the binding ELISA, Flag-TNC-CD70 is captured by an anti-Flag mAb and binding of the Fabs is detected using an anti-myc-HRP mAb, which recognizes the MYC tag fused to the C-terminus of the Fd fragment. For comparison purposes, known monoclonal antibodies to CD70 (SGN70 described in US 2010/0129362 A1, clone 1F6; and MDX69A7 described in WO2008/074004FIGS. 5A and 5B) were tested in parallel. […] Of interest is clone 59D10, which as Fab has no blocking activity, but when converted into a chimeric IgG was antagonistic (see Table 3). […]"}, "[2]": {"target": "T2, human CD70 on the surface of cells (human, UniProt P32970 1-193)", "T2 sequence (looked up)": "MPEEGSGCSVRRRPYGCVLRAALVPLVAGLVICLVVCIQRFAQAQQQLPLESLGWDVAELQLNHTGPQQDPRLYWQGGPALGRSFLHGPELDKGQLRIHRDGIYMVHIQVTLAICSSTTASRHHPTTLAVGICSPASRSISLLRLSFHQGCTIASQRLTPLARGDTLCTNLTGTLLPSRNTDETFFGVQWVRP", "assay": "cell-based or functional assay"}, "[3]": {"target": "T3, recombinant human CD70 (Flag-TNC-CD70) (human, UniProt P32970 39-193)", "T3 construct": "extracellular domain; also called recombinant CD70; human Flag-TNC-CD70; not shown: Flag tag and TNC trimerisation domain", "T3 sequence (looked up)": "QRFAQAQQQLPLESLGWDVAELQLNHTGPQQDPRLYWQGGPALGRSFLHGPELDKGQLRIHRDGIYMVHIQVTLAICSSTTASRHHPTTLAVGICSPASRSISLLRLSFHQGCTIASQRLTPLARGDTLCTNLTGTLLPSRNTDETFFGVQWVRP", "assay": "inhibition ELISA: CD27-Fc binding to anti-Flag-captured Flag-TNC-CD70", "protocol": "From selected phage transfected into TG1, individual colonies were picked randomly for growth in 96 well plates. After IPTG induction according to standard protocols periplasmic fractions (peris) containing Fabs were prepared. […] In this assay, Flag-TNC-CD70 is captured by an anti-Flag mAb and binding of CD27-Fc is detected via a biotinylated anti-CD27 mAb and strep-HRP in the absence or presence of CD70 Fabs (FIGS. 2 and 3) or CD70 mAbs (FIG. 4). In FIG. 2B it can be seen that 27B3, which has an identical VH as 9D1, but contains a somewhat different light chain, seems to block binding of CD27 to CD70 more efficiently, which was in line with the better off rate of this Fab as measured on Biacore (data not shown). Table 3 indicates the blocking potency (expressed as IC50) for the various llama-human chimeric mAbs tested in the CD70 inhibition ELISA. […] FIG. 3 is a composite of an experiment testing llama CD70 Fabs for blocking activity (in the inhibition ELISA, see white bars) and for CD70 binding (binding ELISA, black bars). For the binding ELISA, Flag-TNC-CD70 is captured by an anti-Flag mAb and binding of the Fabs is detected using an anti-myc-HRP mAb, which recognizes the MYC tag fused to the C-terminus of the Fd fragment. […]"}, "[4]": {"target": "T3, recombinant human CD70 (Flag-TNC-CD70)", "assay": "blocking ELISA of Example 19: CD27 Fc chimera on anti-Flag-captured Flag-TNC-CD70"}, "[5]": {"target": "T3, recombinant human CD70 (Flag-TNC-CD70)", "assay": "CD27-CD70 inhibition ELISA, human Flag-TNC-CD70"}, "[6]": {"target": "T4, rhesus recombinant CD70 (FLAG-TNC-rhesus CD70) (rhesus macaque (Macaca mulatta)) (UniProt F7GPA5)", "T4 sequence": "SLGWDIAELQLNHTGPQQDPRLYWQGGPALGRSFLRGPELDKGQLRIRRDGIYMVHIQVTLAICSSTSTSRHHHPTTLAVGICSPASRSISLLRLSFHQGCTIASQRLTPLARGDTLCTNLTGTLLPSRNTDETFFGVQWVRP", "assay": "CD27-CD70 inhibition ELISA, rhesus Flag-TNC-CD70"}, "[7]": {"target": "cynomolgus monkey Flag-TNC-CD70 (cynomolgus monkey)", "assay": "CD27-CD70 inhibition ELISA, cynomolgus Flag-TNC-CD70"}},
  "data": [
    {"binder": "57B6 chimeric llama-human mAb (antibody, V domains shown) VH: QLQLVESGGGLVQPGGSLRLSCAASGFSFSHYAMSWVRQAPGKGLEWVSGDNTYDGGTRYQDSVKGRFTISRDNGKNTLYLQMNSLKPEDTAVYYCAKDTGRGIMGEYGMDYWGKGTLVTVSS VL: QTVVTQEPSLSVSPGGTVTLTCGLKSGSVTSSNYPAWYQQTPGQAPRLLIYNTNSRHSGVPSRFSGSISGNKAALTITGAQPEDEADYYCALYMGSGSANAMFGGGTHLTVLG", "values": [
      {"measurement": "IC50", "setting": "[1]", "result": 0.135, "unit": "µg/mL"}
    ]},
    {"binder": "27B3 chimeric llama-human mAb (antibody, V domains shown, also called SIMPLE antibody 27B3; mAb 27B3) VH: EVQLVESGGGLVQPGGSLRLSCAASGFTFSVYYMNWVRQAPGKGLEWVSDINNEGGTTYYADSVKGRFTISRDNAKNTLTLQMNSLKPEDTALYYCVRDAGYSNHVPIFDSWGQGTQVIVAS VL: QAVVTQEPSLTVSPGGTVTLTCGLKSGSVTSTNFPTWYQQTPGQAPRLLIYNTNTRHSGVPSRFSGSISENKAALTITGAQPEDEAEYFCALFISNPSVEFGGGTQLTVLS", "values": [
      {"measurement": "Raji co-culture assay IC50 relative to 27B3", "setting": "[2]", "result": "1 fold relative to 27B3"},
      {"measurement": "IC50", "setting": "[1]", "result": 0.15, "unit": "µg/mL"}
    ]},
    {"binder": "9D1 chimeric llama-human mAb (antibody, V domains shown, also called mAb 9D1) VH: EVQLVESGGGLVQPGGSLRLSCAASGFTFSVYYMNWVRQAPGKGLEWVSDINNEGGTTYYADSVKGRFTISRDNAKNTLTLQMNSLKPEDTALYYCVRDAGYSNHVPIFDSWGQGTQVIVAS VL: QAVVTQEPSLSVSPGGTVTLTCGLSSGSVTSSHYPGWYQQTPGQAPRLLIFNTNSRHSGVPSRFSGSISGNKAALTITGAQPEDEADYYCALLNIDDGSTMFGGGTHLTVLG", "values": [
      {"measurement": "fold less potent than 27B3 mAb", "setting": "[3]", "result": 3, "unit": "fold"}
    ]},
    {"binder": "SGN70 mAb (antibody, INN chains, looked up, V domains shown) VH: QVQLVQSGAEVKKPGASVKVSCKASGYTFTNYGMNWVRQAPGQGLKWMGWINTYTGEPTYADAFKGRVTMTRDTSISTAYMELSRLRSDDTAVYYCARDYGDYGMDYWGQGTTVTVSS VL: DIVMTQSPDSLAVSLGERATINCRASKSVSTSGYSFMHWYQQKPGQPPKLLIYLASNLESGVPDRFSGSGSGTDFTLTISSLQAEDVAVYYCQHSREVPWTFGQGTKVEIK", "values": [
      {"measurement": "IC50 of IL-8 secretion, Raji / HT1080-CD27 co-culture", "setting": "[2]", "result": 55, "unit": "ng/mL"},
      {"measurement": "IC50", "setting": "[3]", "result": 0.33, "unit": "µg/mL"},
      {"measurement": "IC50", "setting": "[4]", "result": 4.97, "unit": "µg/mL"},
      {"measurement": "IC50", "setting": "[5]", "result": 0.054, "unit": "µg/mL"},
      {"measurement": "IC50", "setting": "[6]", "result": 0.178, "unit": "µg/mL"},
      {"measurement": "IC50", "setting": "[7]", "result": 0.112, "unit": "µg/mL"}
    ]}
  ]
}
